The results in this text go back to ChEMBL document CHEMBL4371014, “Novel Allosteric Ligands of γ-Aminobutyric Acid Transporter 1 (GAT1) by MS Based Screening of Pseudostatic Hydrazone Libraries” (J Med Chem, 2018).

Substrate in data set [1]: Cc1ccsc1C(=CCCN1CCC[C@@H](C(=O)O)C1)c1sccc1C
Conditions: Homo sapiens; 100 nM.

Compound in data set [2]: O=C(O)[C@H]1CNC[C@@H](CN/N=C/c2ccc(-c3cc(C(F)(F)F)cc(C(F)(F)F)c3)o2)C1
Nature of the data set: (§1) Non-competitive inhibition of human GAT1 expressed in COS cells assessed as reduction in [2H6]GABA uptake by measuring [2H6]GABA Vmax at 10 uM preincubated for 25 mins followed by [3H]GABA addition and measured after 4 mins by liquid scintillation counting method (reference value: 570 +/- 53 amol/cell.min). In kind it is cell-based.

Compound in data set [3]: O=C(O)[C@H]1CNC[C@@H](CN/N=C/c2ccc(-c3cccc4ccccc34)o2)C1
The data set is described as §1. It counts as cell-based.

Substrate in data set [4]: Cc1ccsc1C(=CCCN1CCC[C@@H](C(=O)O)C1)c1sccc1C
Particulars: Homo sapiens; 300 nM.
Description: Mixed-type inhibition of human GAT1 expressed in COS cells assessed as reduction in [2H6]GABA uptake by measuring [2H6]GABA Vmax at 300 nM preincubated for 25 mins followed by [3H]GABA addition and measured after 4 mins by liquid scintillation counting method

Substrate in data set [5]: Cc1ccsc1C(=CCCN1CCC[C@@H](C(=O)O)C1)c1sccc1C
Particulars: Homo sapiens; 300 nM. This is another data set of the same source.

Compound in data set [6]: O=C(O)[C@H]1CNC[C@@H](CN/N=C/c2ccc(-c3cc(C(F)(F)F)cc(C(F)(F)F)c3)o2)C1
Nature of the data set: (§2) Non-competitive inhibition of human GAT1 expressed in COS cells assessed as reduction in [2H6]GABA uptake by measuring [2H6]GABA Vmax at 30 uM preincubated for 25 mins followed by [3H]GABA addition and measured after 4 mins by liquid scintillation counting method (reference value: 570 +/- 53 amol/cell.min). In kind it is cell-based.

Compound in data set [7]: O=C(O)[C@H]1CNC[C@@H](CN/N=C/c2ccc(-c3cccc4ccccc34)o2)C1
The data set is described as §2. It counts as cell-based.

Compound in data set [8]: O=C(O)[C@H]1CNC[C@@H](CN/N=C/c2ccc(-c3cc(C(F)(F)F)cc(C(F)(F)F)c3)o2)C1
Nature of the data set: (§3) Non-competitive inhibition of human GAT1 expressed in COS cells assessed as reduction in [2H6]GABA uptake by measuring [2H6]GABA Km(app) at 10 uM preincubated for 25 mins followed by [3H]GABA addition and measured after 4 mins by liquid scintillation counting method (reference value: 12 +/- 1.2 uM). In kind it is cell-based.

Compound in data set [9]: O=C(O)[C@H]1CNC[C@@H](CN/N=C/c2ccc(-c3cccc4ccccc34)o2)C1
Described as §3. In kind it is cell-based.

Compound in data set [10]: O=C(O)[C@H]1CNC[C@@H](CN/N=C/c2ccc(-c3cc(C(F)(F)F)cc(C(F)(F)F)c3)o2)C1
Nature of the data set: (§4) Non-competitive inhibition of human GAT1 expressed in COS cells assessed as reduction in [2H6]GABA uptake by measuring [2H6]GABA Km(app) at 30 uM preincubated for 25 mins followed by [3H]GABA addition and measured after 4 mins by liquid scintillation counting method (reference value: 12 +/- 1.2 uM). It counts as cell-based.

Compound in data set [11]: O=C(O)[C@H]1CNC[C@@H](CN/N=C/c2ccc(-c3cccc4ccccc34)o2)C1
Described as §4. It counts as cell-based.

Substrate in data set [12]: Cc1ccsc1C(=CCCN1CCC[C@@H](C(=O)O)C1)c1sccc1C
Conditions: Homo sapiens; 100 nM. This is another data set of the same source.

B1: Sodium- and chloride-dependent GABA transporter 1 (Homo sapiens), P30531 (protein)
chain: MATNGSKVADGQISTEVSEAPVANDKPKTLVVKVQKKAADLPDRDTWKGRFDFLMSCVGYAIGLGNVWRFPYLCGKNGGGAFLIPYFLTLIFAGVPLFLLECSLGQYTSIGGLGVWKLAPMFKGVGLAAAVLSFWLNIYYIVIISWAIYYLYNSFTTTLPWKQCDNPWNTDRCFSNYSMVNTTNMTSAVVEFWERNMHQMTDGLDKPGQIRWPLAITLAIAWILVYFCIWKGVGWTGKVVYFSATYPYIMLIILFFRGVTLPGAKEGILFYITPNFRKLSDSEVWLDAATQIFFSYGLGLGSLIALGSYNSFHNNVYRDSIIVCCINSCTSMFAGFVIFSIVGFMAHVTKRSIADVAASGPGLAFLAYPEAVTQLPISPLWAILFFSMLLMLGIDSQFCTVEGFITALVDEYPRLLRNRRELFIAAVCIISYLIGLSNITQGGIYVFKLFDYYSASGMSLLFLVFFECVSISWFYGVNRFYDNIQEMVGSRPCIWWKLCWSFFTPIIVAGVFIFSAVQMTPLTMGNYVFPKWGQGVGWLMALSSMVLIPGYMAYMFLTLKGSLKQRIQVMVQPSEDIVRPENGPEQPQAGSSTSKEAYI
As to B1, the Km turned out to be 19.7 µM in data set [1]; 29.4 µM in [5]; 8.2 µM in data set [8]; 10.1 µM in data set [9]; 5.1 µM in data set [10]; 5.7 µM in data set [11]. Moreover, the Vmax (amol/cell.min) in data set [2] was found to be 341; in [3], 332; in data set [4] it was 419; in data set [6], 183; in [7] it was 165; in data set [12], 491.
